Reference: publication PMC5854669, “Zinc knuckle of TAF1 is a DNA binding module critical for TFIID promoter occupancy”

T1: TAF1 ZnA (Homo sapiens, UniProt P21675 1234-1371)
T1 sequence: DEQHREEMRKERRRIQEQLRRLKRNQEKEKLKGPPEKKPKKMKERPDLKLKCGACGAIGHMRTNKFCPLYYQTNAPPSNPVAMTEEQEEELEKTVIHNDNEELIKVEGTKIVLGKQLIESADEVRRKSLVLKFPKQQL

T2: TAF1 ZnD (Homo sapiens, UniProt P21675 1256-1303)
T2 chain: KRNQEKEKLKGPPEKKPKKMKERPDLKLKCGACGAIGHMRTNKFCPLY

T3: TAF1 ZnC (Homo sapiens, UniProt P21675 1234-1303)
T3 sequence: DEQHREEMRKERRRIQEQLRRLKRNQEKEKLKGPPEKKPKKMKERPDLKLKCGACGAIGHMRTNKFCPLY

T4: TAF1 ZnD charge mutant (Homo sapiens, UniProt P21675 1256-1303, R1295A;K1298A)
T4 chain: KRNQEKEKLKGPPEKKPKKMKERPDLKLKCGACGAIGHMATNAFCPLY

T5: TAF1 ZnC cysteine mutant (Homo sapiens, UniProt P21675 1234-1303, C1285A;C1288A)
T5 sequence: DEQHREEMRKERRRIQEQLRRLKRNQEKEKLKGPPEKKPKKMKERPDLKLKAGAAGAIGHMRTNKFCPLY

T6: TAF1 ZnD cysteine mutant (Homo sapiens, UniProt P21675 1256-1303, C1285A;C1288A)
T6 chain: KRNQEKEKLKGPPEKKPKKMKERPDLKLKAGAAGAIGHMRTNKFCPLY

B1: Random DNA (dsDNA)
DNA 1: GAATGTCGCGAAGGCAGCGTTCGCGAAGACAGCAAAGAAG
DNA 2: CTTCTTTGCTGTCTTCGCGAACGCTGCCTTCGCGACATTC
B2: CD1P (cyclin D1 core promoter) (dsDNA)
DNA 1: AGGGGAGTTTTGTTGAAGTTGCAAAGTCCTGGAGCCTCCAGAGGGCTGTCG
DNA 2: CGACAGCCCTCTGGAGGCTCCAGGACTTTGCAACTTCAACAAAACTCCCCT
B3: IMD (Inr, MTE, DPE of super core promoter) (dsDNA)
DNA 1: GTCCTCAGTCGCGATCGAACACTCGAGCCGAGCAGACGTGCCTA
DNA 2: TAGGCACGTCTGCTCGGCTCGAGTGTTCGATCGCGACTGAGGAC

What was measured:
TAF1 ZnA = molecular target: T1, TAF1 ZnA; experiment: BLI; 0.2 mM dI:dC, 5 mM Mg2+; BLI: 10 mM HEPES pH 7.9, 5 mM MgCl2, 100 mM NaCl, 10% glycerol, 0.1% ovalbumin, 0.2 mM dI:dC, 30 °C; EMSA: 10 mM HEPES pH 7.9, 5 mM MgCl2, 100 mM NaCl, 10% glycerol, 20 mM tetrasodium pyrophosphate (so in the source), 0.2 mM dI:dC, 25 °C; conditions: protein: recombinant; EMSA/proteolysis: tag removed by TEV; label: 5'-biotin (BLI); 5'-32P (EMSA); blunt
TAF1 ZnD = molecular target: T2, TAF1 ZnD; experiment: as above; conditions: protein: recombinant; tags: His-GB1; label: 5'-biotin (BLI); 5'-32P (EMSA); blunt
TAF1 ZnC = molecular target: T3, TAF1 ZnC; experiment: as above; conditions: protein: recombinant; tags: His-GB1; label: 5'-biotin (BLI); 5'-32P (EMSA); blunt
TAF1 ZnD charge mutant = molecular target: T4, TAF1 ZnD charge mutant; experiment: BLI; BLI: 10 mM HEPES pH 7.9, 5 mM MgCl2, 100 mM NaCl, 10% glycerol, 0.1% ovalbumin, 0.2 mM dI:dC, 30 °C; EMSA: 10 mM HEPES pH 7.9, 5 mM MgCl2, 100 mM NaCl, 10% glycerol, 20 mM tetrasodium pyrophosphate (so in the source), 0.2 mM dI:dC, 25 °C; conditions: protein: recombinant; tags: His-GB1; label: 5'-biotin (BLI); 5'-32P (EMSA); blunt
TAF1 ZnC cysteine mutant = molecular target: T5, TAF1 ZnC cysteine mutant; experiment: as above; conditions: protein: recombinant; tags: His-GB1; label: 5'-biotin (BLI); 5'-32P (EMSA); blunt
TAF1 ZnD cysteine mutant = molecular target: T6, TAF1 ZnD cysteine mutant; experiment: as above; conditions: protein: recombinant; tags: His-GB1; label: 5'-biotin (BLI); 5'-32P (EMSA); blunt

Row | Binder | Kd (TAF1 ZnA) | Kd (TAF1 ZnD) | Kd (TAF1 ZnC) | binding result (TAF1 ZnD charge mutant) | binding result (TAF1 ZnC cysteine mutant) | binding result (TAF1 ZnD cysteine mutant)
1 | B1 | 1010 ± 228 nM |  |  |  |  | 
2 | B2 | 411 ± 101 nM |  |  |  |  | 
3 | B3 | 288 ± 46 nM | 503 ± 67 nM | 343 ± 42 nM | no binding | no binding | no binding
